We go through two substances from publication PMC10872345.

Test [1] concerns the target Biotinylated human E-cadherin K14E mutant ectodomains (human). Briefly: single-molecule AFM force spectroscopy.
For test [2], the target named is Biotinylated human E-cadherin ectodomains (EC1-5), wild type (human). Kind of test: single-molecule AFM force spectroscopy.

In test [1], “Biotinylated human E-cadherin K14E mutant ectodomains (domain or fragment)” had an average unbinding force of 42.8 pN; an unbinding force, lower peak (un-strengthened, with 40 nM 66E8 Fab) of 39.4 pN; an unbinding force, second peak (strengthened, with 40 nM 66E8 Fab) of 62.3 pN.

Regarding “Biotinylated human E-cadherin ectodomains (EC1-5), wild type (domain or fragment)”, in test [2], the peak unbinding force stood at 48.3 pN; the unbinding force, lower peak (un-strengthened, with 40 nM 66E8) was 45.2 pN; the unbinding force, second peak (strengthened, with 40 nM 66E8) is 63.3 pN.
